Experimental data published in the nanobody polyreactivity screen of Harvey et al. (2022).

assay: yeast display, Sf9 membrane polyspecificity reagent, FACS + sequencing; frameworks hold sequencing errors
Procedure, shortened: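 Nanobodies came from a synthetic yeast display library in Saccharomyces cerevisiae BJ5465, induced with galactose for 36–48 hours and stained for 1 hour at 4 °C with 10% biotinylated, detergent-solubilized Sf9 membrane reagent. Cells were enriched on streptavidin microbeads and then FACS-sorted, with low and high (top ~1%) gates set on anti-HA fluorescence for expression and streptavidin fluorescence for reagent binding. Each polyreactivity label reflects the gate a clone came from. Genes were amplified by colony PCR, sequenced by MiSeq 2 × 250 and filtered by CDR length.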

Row | Sequence | polyreactivity (PSR sort gate)
1 | QVQLVESGVCLVQAGGSLRLICAASGNIFYGYAMGWYRQAPGKESELVAAISTGGSTNYADSVKGRFTISRDNAKNTVYLQMNSLKPVDTAVYYCASDDPQQYGVRQLGYDSWGQVTQVTVSS | low polyreactivity
2 | QVQLVESGGGLVQAGGSLRLSSAASGRTFVSYAMGWYRQAPGKERELVAVITYSGGSTNYADSVKGRFTISRDNAKNTVYLQMNSLKPEDTAVYYCAATQSIPYSTLYSYDYWGQGTQVTVSS | low polyreactivity
3 | QVQLVESGGGLVQAGGSLRLSCAASGSILKNNAMGWYRQAPGKERELVAAITYSSGSTYYADSVKGRFTISRDNAKNTVYLQMNILKPEDTAVYYCATDPEGSTGGGYEYWGQGTQVTVSS | low polyreactivity
4 | QVQLVESGGGLVQAGGSLRLSCAASGSTFADYAMGWYRQAPGKERELVAAITQSGGSTSYADSVKGRFTISRDNAKNTVYLQMNSLKPEDTAVYYCNVDDSTWIGAYRRYDYWGQGTQVTVSS | low polyreactivity
5 | QVQLVESGGGLVQAGGSLRLSCAASGRTFPYYAMGWYRQAPGKETELVASISYRGGNTYYADSVKGRFTISRDNAKNTVYLQMNSQKPEDTAVYYCAKTGRYSARDDYWGQGTQVTVSS | high polyreactivity
6 | QVQLVESGGGLVQAGGSLRLSCDASGSIFYRNVMGWYRQAPGKERELVAAISGRGGSTYYADSVKGRFTISRDNAKNTVYLQMNSLKPEDTAVYYCAADKGYRYISYYYWGQGTQVTVSS | high polyreactivity
7 | QVQLVETGGGLVQAGGSLRLSCAASGSTFQPYAMGWYRQAPGKERELVAAIRSIAGSTYYADSVKGRFTISRDNAKITVYLQMNILKPDDTAVYYCAADWWRVEMDYWGQGTQVTVSS | low polyreactivity
8 | QVQLVESGGGLVQAGGSLRLSCAASGRTFGEYAMGWYRQAPGKERELVADITNGSRTYYADSVKGRFTISRDNAKNTVYLQMNSLKPEDTAVYYCAADWWKEVDYWGQGTHVTVSS | low polyreactivity
9 | QVQLVESGGGLVQAGGSLRLSCAPSGITFGEYAMGWYRPAPGKERELVAAISRSGGSTYADSVKGRFTISRDNAKNTVYLQMNSLKPEDTAVYYCAAYSGVGYLWFDYWGQGTQVTVSS | low polyreactivity
10 | QFQLVESGGGLVQAGGSLRLSCPAYGSNLSRYAMGWYRQSPGKVRELVATITRRGGSTFYADSVKGRFTISRDNAKNTVYLQMNSLKPDDTADYYCAVGRLFWGQGTQVTVSS | low polyreactivity
11 | QVQLVESGGGLVQAGGSLRLSCAASGSISKINAMGWYRQAPGKERELVAAINTGDSTYYADSVKGRFTISRDNAKNTVYLQMNSLKPEDTAVYYCAAEGSPNGYDYWGQGTQVTVSS | low polyreactivity
12 | QVQLVESGGGLVQAGGSLRLSCAASGSIFSGNAMGWYRQAPGKERELVAAISRSGGSTYYADSVMGRFTISRDNAKNTVYLQMNSLKPEDTAVYYCNAGRYRAGGWGVGEGYWGQGTQVTVSS | high polyreactivity
13 | QVQLEESGGGLVQAGGSLRLSCAASGRTFDYYAMGWYRQAPGKERELVAAIRLISGNTYYADSVKGRFTISRDNAKNTVYLQMNSLKPEDTAVYYCAAPSDGVPSLYGGMDYWGQGTQVTVSS | low polyreactivity
14 | QVQLVESGGGLVQAGGSLRLSCAASGSIFVDYAMGWYRQAPGKERELVAAITWRGDTTYYADSVKGRFTISRDNAKNTFYLQMNSLKPEDTAVYYCAAADPVGGEYWGQGTQVTVSS | low polyreactivity
15 | QVQLVESGGGLVQAGGSLRLSCAASGFIFSRYAMGWYRQAPGKERELVAAISSRGGSTYYADSVKGRFTISRDNAKNTVYLQMNSLKPEDTAVYYCNVDPRYSLTPPMDYWGQGTQVTVSS | high polyreactivity
16 | QVQLVESGGGLVQAGGSLRLSCAASGSTFFSYTMGWSRQAPGKEWELVAAITWSAGTTYYADSVKGRFTISRDNAKNTVYLQMNSLKPEDTAVYYCNADLSRYPTAVRMDYWGQGTQVTVSS | low polyreactivity
17 | QVQLVESGGGLVQAGGSLRLSCAASGSIFTYNAMGWYRQAPGKERELVASISSGGITNYADSVKGRFTISRDNAKNTVYLQMNSLKPEDTAVYYCATEYLYVDFFIRYDYWGQGTQVTVSS | low polyreactivity
18 | QVQLVESGGGLVQAGGSLRLSCAASGRTFRHYAMGWYRQAPGKDRELVAAISGSGGRTYYADSVKGRFTISRDNAKNTVYLQMNSLKPEDTAVYYCATRHTTRFYWGQGTQVTVSS | high polyreactivity
19 | QVQLVESGGGLVQAGGSLRLSCAATGRIYVTNAMGWYRQAPGKERELVAAITESGGSTYYADTVKGRFTISRDNAKNTVYLQMNSLKPEDTAVYYCAADYLNGEEDYWGQGTQVTVSS | low polyreactivity
20 | QVQLVESGGGLVQAGGSLRLSCAASGRILDVNDMGWYRQAPGKERELVAAISSGTNTYYADSVKGRFTISRDNAKNTVYLQMNSLKPEDTAVYYCAADYLGLSDADDYDYWGQGTQVTVSS | low polyreactivity
21 | QVQLVESGGGLVQAGGSLRLSCAASGSIFTRNAMGWYRQAPGKERELVATIRKNGASTTYADSVKGRFTISRDNAKNTVYLQMNSLKPEDTAVSYCARDHHTKYNYWGQGTQVTVSS | low polyreactivity

Row | Sequence | polyreactivity (PSR sort gate)
22 | QVQLVESGGGLVQAGGSLRLSCAASGSIFNVNAMGWYRQAPGKERELVAAISSGGDTYYADSVKGRFTISRDNAKNTVYLQMNSLKPEDTAVYYCAKQSYTLYTLLYDYWGQGTQVTVSS | low polyreactivity
23 | QVQLVESGGGLVQAGGSLRLSCAASGNIFLSYAIGCYRQAPGKEREFVPAIRWSGASTYYADSVKGRFTISRDNAKNTVELQMNSLKPEDTAVYYCGRRALCPRRGIRYDYWGQGSQVTVSS | high polyreactivity
24 | QGQLVESRGGLVQAGGSLRLSCAASGRTFYYYGMGWYIQAPGKERELVATINSGASTYYADSVKGRFTISRDNAKNTVYLQINSLKPEDTAVYYCDAAKENGKYDYWGQGTQVTVSS | high polyreactivity
25 | QVQLVESGGGLVQAGGSHRLSCAASGSIFVVYAMGWYRQAPGKERELVASIRTGGSTNYADSVKGRFTISRDNAKNTVYLQMNSLKPEDTAVYYCAAASWNSNRHYYVARYYYWGQGTQVTVSS | high polyreactivity
26 | QVQLVESGGGLVQAGGSLRLSCAASGSIFRPYAMGWYRPAPGKERELVAAITSGGRTNYADSVKGRFTISRDNAKNTVYLQMNSLKPEDTAVYYCAKTGSYAKIRPNNDYWGQGTQVTVSS | low polyreactivity
27 | QVQLLESGGGLVQAGGSLRLSCPPSGFIFPRNVMGWYRQAPGKERELVAAISRSGGSTYYADSVKGRYTISRDNAKNTVYLQLNSQKPEDTAVYYCAAEIPVYQGTGDYDYWGQGTQVTVSS | low polyreactivity
28 | QEQLVESGGGIVKAGGSLRLSCAASGSIFSYYAMGRYRKSPGKEMELVAGITGGGSTDYADSLKGRFTISRDNAKNTVYLQMNSLIPEDPAVYYCAKRYVPWRPYDYWGQGTQVTVSS | low polyreactivity
29 | QVQLVETGGGLVQAGGSLRLSCAASGFIFPGNMGWDRQAPGKDRELVAAISWSGGSTRYADSVKGRFTISRDNAKNTVYLQMNSLKPEDTAVYYCAASLSGKRFTKRYYWGQGTQVTVSS | high polyreactivity
30 | QVQLVESGGGLVQAGGSLRLSCAASGSIFSVYVMGWYRPAPGKERELVATISSGGGTYYADSVKGRFTISRDNAKNTVYLQMNSLKPEDTAVYYCYADWDDWKGDYWGQGTQVTVSS | low polyreactivity
31 | QVQLVESGGGLVQAGGSLRLSCAASGSTFPRYAMGWYRQAPGKERELVAAISSGGSTYYADSVKGRFTISRDNAKNTVYLQMNSLKPEDTAVYYCNARRSRSRYDYWGQGTQVTVSS | high polyreactivity
32 | QVQLVESGGGLVQAGGSLRLTCAASGLIFYRYAMGWYRQAPGKERELVATMSRSGGTYADSVKGRFTISRDNAKNTVYLQMNSLKPEDTAVYYCNARTLYAYITRDYWGQGTQVTVSS | high polyreactivity
33 | QVQLVESGGGLVQAGGSLRLSCAASGSTFWQYALGWYRQAPGKEREFVAAISSRGGSTYYADSVKGRFTISRDNAKNTVYLQMNSLKPEDTAVYYCAAQNYFAFIRTYRYVHRPTYYYWGQGTQVTVSS | high polyreactivity
34 | QVQHVESGGGLLQAGGSLRLSCPASGRTFTVYALGWYRQAPGKDRELVAAFSRSGGRTYYADSVKGRFTISRDNAKNTVYLQRNSLKPEDTAVYYCAADDPYRTNDFDYWGQGTQVTVSS | high polyreactivity
35 | QVQLVESGGGLVQAGGSLRLSCAASGIIFNDYAMGWYRQAPGNERELVATISWSGGSTYADSVKGLFTISRDNAKNTVYLQMNSLKPEDTAVYYCANQPTVYHHYGLGYWGQGTQVTVSS | low polyreactivity
36 | QVQLVESGGGLVQAGGSIRLSCAASGFIFYYNPMGWSRQEPGIERELVADITSGRSTYYADSVKGRFTISRDNAKISVYLQLNSLKPEDTAVIYCAVDYDQFGSDEELPPGSDYWGQGTQVTVSS | low polyreactivity
37 | QVQLVESGGGLVQAGGSLRLSCAASGFTFVNYAMGWYRQAPGKERELVAAISSGGRTYYADSVKGRFTISRDNAKNTVYLQMNSLKPEDTAVYYCAARYKGRAIWMDYWGQGTQVTVSS | high polyreactivity
38 | QVQLVESGGGLVQAGGSLRLSCAASGIIFYIYAMGWYRQAPGKERELVAAISSGGNTYYADSVKGRFTISRDNAKNTVYLQMNSLKPEDTAVYYCAAYSRKVSFQYRYDYWGQGTQVTVSS | high polyreactivity
39 | QVQLVESGGGLVQAGGSLRLSCAASGRIFEHYAMGWYRQAPGKERELVAAITVSVGSTYYADSVKGRFTISRDNAKNTVYLEMNSLKPEDTAVYYCAAGIHCRYARDWYEYWGQGTQVTVSS | low polyreactivity
40 | QVQLVESGGGLVQAGGSLRLSCAASGRIFVVNAMGWYRQAPGKERELVAAITRRGGSTYADSVKGRFTISRDNAKNTVYLQMNSLKPEDTAVYYCNKLVTGGSWSPGHYRYNYWGQGTQVTVSS | high polyreactivity
41 | QVQLVESGGGLVQSGGSLRLSCAASGRTFGYYDMGWYRQAPGKERELVASITRRGGSTYYADSVKGRFTISRDNAKNTVYLQMNSLKPEDTAGYYCAARYKARYEPARYDYWGQGTQVTVSS | high polyreactivity
